The results in this text go back to patent publication US20260226006A1, “INDOLE COMPOUND, PREPARATION METHOD THEREFOR AND USE THEREOF” (SUZHOU MERNA THERAPEUTICS CO. LTD, priority 2023, published 2026).

Assay [1] relates to KRT1, KRT10, Loricrin, and Involucrin in HaCat keratinocytes. Description: Expression of keratinocyte differentiation markers in HaCat cells, RT-PCR and Western blot (Example 18). The class given is cell-based, human. The following applies: HBEGF protein alone, 24 hours. The method, then: 1*10^8 HaCat cells were seeded in culture dishes, into which a recombinant HBEGF protein (Thermo Fisher Scientific, Cat. #100-47-1 mg) was added. The cells were placed in an incubator containing 5% carbon dioxide for culture at 37° C. for 24 hours, into which an HBEGF antibody (Invitrogen, Cat. #406316) was added, or METTL3 siRNA (sh-METTL3, GeneChem) and NAP1L2 siRNA (sh-NAP1L2, GeneChem) were transfected. The cells were placed in an incubator containing 5% carbon dioxide for culture at 37° C. for 24 hours, washed with PBS, and then collected by high-speed centrifugation. An RLT lysis buffer was added to the above collected cells, the mixture was shaken at 4° C. for half an hour and centrifuged to collect the supernatant, and the protein expression amounts of keratinocyte differentiation markers KRT1, KRT10, Loricrin, and Involucrin were measured by Western blot.
Total RNA was extracted using a Trizol reagent (Sigma Aldrich). 1 μg of RNA was reverse-transcribed into cDNA using a cDNA reverse transcription kit (Transgene Biotech, Cat. #AT311-03). 1.25 μL of a primer (with a primer sequence shown in Table 2), 10 μL of an iTag Universal SYBR Green supermix (Bio-Rad, Cat. #172-5125), and an appropriate amount of DEPC ultrapure water were added to formulate 20 μL of a reaction solution to perform an RT-PCR reaction. […]
In general terms: A western blot detects proteins with antibodies after separation by electrophoresis.

Assay [2] relates to HaCaT keratinocytes. The experiment in a line: Inhibition of HBEGF-induced differentiation of HaCaT keratinocytes, marker mRNA by RT-PCR (Example 21). The class given is cell-based, human. As to conditions: 2.5 ng/mL human recombinant HBEGF protein alone, 24 hours. The method, then:
Human HaCaT keratinocytes were cultured in a DMEM culture medium containing 10% fetal bovine serum, 100 U/mL penicillin, and 100 µg/mL streptomycin. The cells were seeded into a 96-well plate at a density of […] and placed in an incubator containing 5% carbon dioxide for culture at 37° C. for 24 hours. An equal volume of DMSO was added into control well 1, a 2.5 ng/mL human recombinant HBEGF protein (Abcam, ab205523) was added into control well 2, and a 2.5 ng/mL human recombinant HBEGF protein and corresponding concentrations of test compounds were added into sample wells. The cells were continuously cultured for 24 hours, washed with PBS, and then collected by high-speed centrifugation. Total RNA was extracted using a Trizol reagent (Sigma Aldrich). 1 μg of RNA was reverse-transcribed into cDNA using a cDNA reverse transcription kit (Transgene Biotech, AT311-03). 1.25 μL of a primer (with a primer sequence shown in Table 2), 10 μL of an iTag Universal SYBR Green supermix (Bio-Rad, 172-S125), and an appropriate amount of DEPC ultrapure water were added to formulate 20 μL of a reaction solution to perform an RT-PCR reaction. Upon completion of the reaction, the reaction solution was subjected to agarose gel electrophoresis to determine the mRNA expression amounts of keratinocyte differentiation markers KRT1, KRT10, Loricrin, and Involucrin.

B1: recombinant HBEGF protein: recombinant HBEGF protein used to induce keratinocyte differentiation (protein, UniProt Q99075 63-148, looked up)
Heparin-binding EGF-like …: DLQEADLDLLRVTLSSKPQALATPNKEEHGKRKKKGKGLGKKRDPCLRKYKDFCIHGECKYVKELRAPSCICHPGYHGERCHGLSL
Regarding B1, the “mRNA and protein expression amounts of KRT1, KRT10, Loricrin, and Involucrin” value in assay [1] is given as “significantly increased”. Also, the “mRNA expression amounts of HaCaT differentiation markers KRT1, KRT10, Loricrin, and Involucrin” value in assay [2] is “significantly increased”.
